Results as given in patent publication US20170096485A1 (Hoffmann-La Roche, published 2017).
Positions count from the first letter of the chain named. Read-outs that look alike come from different tables or passages of the source.

Legend:
human mesothelin [1] = molecular target: T1, human mesothelin (human, UniProt Q13421 296-580); assay: cell-based or functional assay
human mesothelin [2] = molecular target: T1, human mesothelin; assay: cell-based or functional assay; remark: listed apart in the source
human mesothelin [3] = molecular target: T1, human mesothelin; assay: cell-based or functional assay; remark: listed apart in the source
human mesothelin [4] = molecular target: T1, human mesothelin; assay: cell-based or functional assay; remark: listed apart in the source
human mesothelin [5] = molecular target: T1, human mesothelin; assay: cell-based or functional assay; remark: listed apart in the source
human mesothelin [6] = molecular target: T1, human mesothelin; assay: cell-based or functional assay; remark: listed apart in the source
human mesothelin [7] = molecular target: T1, human mesothelin; assay: cell-based or functional assay; remark: listed apart in the source
human CD3 = molecular target: T2, human CD3 (human, UniProt P07766 23-207); assay: flow cytometry on Jurkat cells, 3.8 pM-300 nM
T2 construct: also called CD3 epsilon
T2 sequence (P07766 23-207 limits assumed): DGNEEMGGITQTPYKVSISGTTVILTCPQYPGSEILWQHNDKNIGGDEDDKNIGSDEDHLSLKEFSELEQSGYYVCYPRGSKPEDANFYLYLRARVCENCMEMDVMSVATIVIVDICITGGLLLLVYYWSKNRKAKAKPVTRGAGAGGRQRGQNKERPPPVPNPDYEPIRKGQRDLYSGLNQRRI
Procedure: (§1) Briefly, Jurkat suspension cells were harvested, counted and checked for viability. Adherent AsPC-1 cells were harvested using Cell Dissociation Buffer (Gibco, #13151014), counted, checked for viability, and re-suspended at 0.9×10⁶ cells/ml in FACS buffer (100 μl PBS 0.1% BSA). […] Cells were re-incubated for further 30 min at 4° C. with the 1:100 pre-diluted AlexaFluor 647—F(ab′)₂ Fragment Goat Anti-Human IgG, Fey fragment specific secondary antibody (Jackson Immuno Research Lab, […] #109-096-008) and thereafter washed twice with cold PBS 0.1% BSA.
(§2) The stained cells were re-suspended in 100 μl 2% paraformaldehyde-containing FACS Buffer and incubated for 30 min at room temperature to fix the staining. Finally cells were centrifuged for 4 min at 350×g and 4° C., the supernatants were discarded and the cell pellets re-suspended in 200 μl FACS Buffer. Staining was analyzed by FACS using a FACS Canto II (Software FACS Diva). Binding curves and EC50 values were obtained using GraphPadPrism6 (FIG. 8A, binding to Jurkat cells, FIG. 8B binding to AsPC-1 cells).

human mesothelin [8] = molecular target: T1, human mesothelin; assay: flow cytometry on CHO cells transiently transfected to express human MSLN
cynomolgus mesothelin = molecular target: T3, cynomolgus mesothelin (cynomolgus); assay: flow cytometry on CHO cells transiently transfected to express cynomolgus MSLN
T3 construct: whole, on cells; also called cynomolgus MSLN

human mesothelin [9] = molecular target: T1, human mesothelin; assay: flow cytometry on MSLN-expressing AsPC-1 cells, 3.8 pM-300 nM, fit with GraphPad Prism6
Procedure: as §1, §2

T1 sequence (Q13421 296-588): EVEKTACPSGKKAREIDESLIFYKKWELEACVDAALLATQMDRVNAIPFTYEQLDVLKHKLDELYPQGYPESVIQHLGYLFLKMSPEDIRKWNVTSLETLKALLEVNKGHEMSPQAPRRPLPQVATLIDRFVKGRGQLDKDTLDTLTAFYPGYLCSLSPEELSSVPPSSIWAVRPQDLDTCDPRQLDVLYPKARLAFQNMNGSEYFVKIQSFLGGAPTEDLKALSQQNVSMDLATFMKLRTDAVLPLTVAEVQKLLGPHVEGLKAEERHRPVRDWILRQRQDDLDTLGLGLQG

B1: MSLN TCB molecule A: '2+1 IgG CrossFab, inverted' with charge modifications (VH/VL exchange in CD3 binder, charge modification in mesothelin binders) (bispecific antibody)
heavy 1: QVQLVQSGAEVKKPGASVKVSCKASGYSFTGYTMNWVRQAPGQGLEWMGLITPYNGASSYNQKFRGKATMTVDTSTSTVYMELSSLRSEDTAVYYCARGGYDGRGFDYWGQGTLVTVSSASTKGPSVFPLAPSSKSTSGGTAALGCLVEDYFPEPVTVSWNSGALTSGVHTFPAVLQSSGLYSLSSVVTVPSSSLGTQTYICNVNHKPSNTKVDEKVEPKSCDKTHTCPPCPAPEAAGGPSVFLFPPKPKDTLMISRTPEVTCVVVDVSHEDPEVKFNWYVDGVEVHNAKTKPREEQYNSTYRVVSVLTVLHQDWLNGKEYKCKVSNKALGAPIEKTISKAKGQPREPQVCTLPPSRDELTKNQVSLSCAVKGFYPSDIAVEWESNGQPENNYKTTPPVLDSDGSFFLVSKLTVDKSRWQQGNVFSCSVMHEALHNHYTQKSLSLSP
heavy 2: not shown
light 1: EVQLLESGGGLVQPGGSLRLSCAASGFTFSTYAMNWVRQAPGKGLEWVSRIRSKYNNYATYYADSVKGRFTISRDDSKNTLYLQMNSLRAEDTAVYYCVRHGNFGNSYVSWFAYWGQGTLVTVSSASVAAPSVFIFPPSDEQLKSGTASVVCLLNNFYPREAKVQWKVDNALQSGNSQESVTEQDSKDSTYSLSSTLTLSKADYEKHKVYACEVTHQGLSSPVTKSFNRGEC
light 2: DIQMTQSPSSLSASVGDRVTITCSASSSVSYMHWYQQKSGKAPKLLIYDTSKLASGVPSRFSGSGSGTDFTLTISSLQPEDFATYYCQQWSKHPLTFGQGTKLEIKRTVAAPSVFIFPPSDRKLKSGTASVVCLLNNFYPREAKVQWKVDNALQSGNSQESVTEQDSKDSTYSLSSTLTLSKADYEKHKVYACEVTHQGLSSPVTKSFNRGEC
Human mesothelin [1]
  EC50 of T-cell mediated killing of AsPC-1 cells, 24 h (LDH release, human PBMCs, E:T 10:1): 0.308 nM
  EC50 of T-cell mediated killing of AsPC-1 cells, 48 h (LDH release, human PBMCs, E:T 10:1): 0.1 nM
  EC50 of T-cell mediated killing of BxPC-3 cells, 24 h (LDH release, human PBMCs, E:T 10:1): 0.0552 nM
  EC50 of T-cell mediated killing of BxPC-3 cells, 48 h (LDH release, human PBMCs, E:T 10:1): 0.0195 nM
  EC50 of T-cell mediated killing of NCI-H596 cells, 24 h (LDH release, human PBMCs, E:T 10:1): 0.1 nM
  EC50 of T-cell mediated killing of NCI-H596 cells, 48 h (LDH release, human PBMCs, E:T 10:1): 0.143 nM
Human mesothelin [2]
  EC50 of T-cell mediated lysis of AsPC-1 cells, 48 h (LDH release): 0.0762 nM
  EC50 of T-cell mediated lysis of BxPC-3 cells, 48 h (LDH release): 0.0881 nM
  EC50 of T-cell mediated lysis of NCI-H596 cells, 24 h (LDH release): 0.0251 nM
  EC50 of T-cell mediated lysis of NCI-H596 cells, 48 h (LDH release): 0.0971 nM
Human mesothelin [3]
  EC50 of T-cell mediated lysis of AsPC-1 cells, 48 h (LDH release): 0.146 nM
  EC50 of T-cell mediated lysis of BxPC-3 cells, 48 h (LDH release): 0.0577 nM
  EC50 of T-cell mediated lysis of NCI-H596 cells, 48 h (LDH release): 0.149 nM
Human mesothelin [4]
  EC50 of T-cell mediated lysis of AsPC-1 cells, 48 h (LDH release): ~0.498 nM
  EC50 of T-cell mediated lysis of BxPC-3 cells, 48 h (LDH release): 0.258 nM
  EC50 of T-cell mediated lysis of NCI-H596 cells, 48 h (LDH release): 0.313 nM
Human mesothelin [5]
  EC50 of CD69 up-regulation on CD4 T cells (% CD4+CD69+), AsPC-1 target cells, 72 h (FACS): 0.131 nM
  EC50 of CD69 up-regulation on CD4 T cells (% CD4+CD69+), BxPC-3 target cells, 72 h (FACS): 0.00752 nM
  EC50 of CD69 up-regulation on CD4 T cells (% CD4+CD69+), NCI-H596 target cells, 72 h (FACS): 0.0352 nM
  EC50 of CD69 up-regulation on CD8 T cells (% CD8+CD69+), AsPC-1 target cells, 72 h (FACS): 0.0936 nM
  EC50 of CD69 up-regulation on CD8 T cells (% CD8+CD69+), BxPC-3 target cells, 72 h (FACS): 0.0307 nM
  EC50 of CD69 up-regulation on CD8 T cells (% CD8+CD69+), NCI-H596 target cells, 72 h (FACS): 0.0476 nM
Human mesothelin [6]
  EC50 of CD69 up-regulation on CD4 T cells (% CD4+CD69+), AsPC-1 target cells, 48 h (FACS): 0.174 nM
  EC50 of CD69 up-regulation on CD4 T cells (% CD4+CD69+), BxPC-3 target cells, 48 h (FACS): 0.0774 nM
  EC50 of CD69 up-regulation on CD4 T cells (% CD4+CD69+), NCI-H596 target cells, 48 h (FACS): 0.0412 nM
  EC50 of CD69 up-regulation on CD8 T cells (% CD8+CD69+), AsPC-1 target cells, 48 h (FACS): 0.137 nM
  EC50 of CD69 up-regulation on CD8 T cells (% CD8+CD69+), BxPC-3 target cells, 48 h (FACS): 0.0977 nM
  EC50 of CD69 up-regulation on CD8 T cells (% CD8+CD69+), NCI-H596 target cells, 48 h (FACS): 0.0783 nM
Human mesothelin [7]
  EC50 of CD69 up-regulation on CD4 T cells (% CD4+CD69+), AsPC-1 target cells (FACS): 0.513 nM
  EC50 of CD69 up-regulation on CD4 T cells (% CD4+CD69+), BxPC-3 target cells (FACS): 0.0598 nM
  EC50 of CD69 up-regulation on CD4 T cells (% CD4+CD69+), NCI-H596 target cells (FACS): 0.0774 nM
  EC50 of CD69 up-regulation on CD8 T cells (% CD8+CD69+), AsPC-1 target cells (FACS): 0.546 nM
  EC50 of CD69 up-regulation on CD8 T cells (% CD8+CD69+), BxPC-3 target cells (FACS): ~0.118 nM
  EC50 of CD69 up-regulation on CD8 T cells (% CD8+CD69+), NCI-H596 target cells (FACS): 0.145 nM
Human CD3
  binding result: binds
Human mesothelin [8]
  EC50: 7.76 nM
Cynomolgus mesothelin
  EC50: 5.5 nM
Human mesothelin [9]
  EC50: 1.44 nM

B2: MSLN TCB molecule E: '1+1 IgG CrossFab, inverted' with charge modifications (bispecific antibody)
heavy: not shown
light 1: B1 light 1
light 2: B1 light 2
chain: DKTHTCPPCPAPEAAGGPSVFLFPPKPKDTLMISRTPEVTCVVVDVSHEDPEVKFNWYVDGVEVHNAKTKPREEQYNSTYRVVSVLTVLHQDWLNGKEYKCKVSNKALGAPIEKTISKAKGQPREPQVCTLPPSRDELTKNQVSLSCAVKGFYPSDIAVEWESNGQPENNYKTTPPVLDSDGSFFLVSKLTVDKSRWQQGNVFSCSVMHEALHNHYTQKSLSLSP
Human mesothelin [3]
  EC50 of T-cell mediated lysis of AsPC-1 cells, 48 h (LDH release): 0.145 nM
  EC50 of T-cell mediated lysis of BxPC-3 cells, 48 h (LDH release): 0.115 nM
  EC50 of T-cell mediated lysis of NCI-H596 cells, 48 h (LDH release): 0.182 nM
Human mesothelin [6]
  EC50 of CD69 up-regulation on CD4 T cells (% CD4+CD69+), AsPC-1 target cells, 48 h (FACS): 0.167 nM
  EC50 of CD69 up-regulation on CD4 T cells (% CD4+CD69+), BxPC-3 target cells, 48 h (FACS): ~0.0939 nM
  EC50 of CD69 up-regulation on CD4 T cells (% CD4+CD69+), NCI-H596 target cells, 48 h (FACS): 0.0388 nM
  EC50 of CD69 up-regulation on CD8 T cells (% CD8+CD69+), AsPC-1 target cells, 48 h (FACS): 0.146 nM
  EC50 of CD69 up-regulation on CD8 T cells (% CD8+CD69+), BxPC-3 target cells, 48 h (FACS): ~0.0952 nM
  EC50 of CD69 up-regulation on CD8 T cells (% CD8+CD69+), NCI-H596 target cells, 48 h (FACS): 0.0609 nM
Human mesothelin [9]
  EC50: 1.79 nM

B3: MSLN TCB molecule C: '2+1 IgG CrossFab, inverted' without charge modifications (VH/VL exchange in CD3 binder) (bispecific antibody)
light: B1 light 1
chain 1: B1 heavy 1 with E149K, E215K
chain 2: not shown
chain 3: B1 light 2 with R122E, K123Q
Human mesothelin [9]
  EC50: 0.828 nM

B4: MSLN TCB molecule F: '1+1 IgG CrossMab' with charge modifications (bispecific antibody)
heavy 1: B1 heavy 1
heavy 2: not shown
light 1: B1 light 1
light 2: B1 light 2
Human mesothelin [3]
  EC50 of T-cell mediated lysis of AsPC-1 cells, 48 h (LDH release): 0.37 nM
  EC50 of T-cell mediated lysis of NCI-H596 cells, 48 h (LDH release): 0.319 nM
Human mesothelin [6]
  EC50 of CD69 up-regulation on CD4 T cells (% CD4+CD69+), AsPC-1 target cells, 48 h (FACS): 0.299 nM
  EC50 of CD69 up-regulation on CD4 T cells (% CD4+CD69+), BxPC-3 target cells, 48 h (FACS): ~0.0958 nM
  EC50 of CD69 up-regulation on CD4 T cells (% CD4+CD69+), NCI-H596 target cells, 48 h (FACS): 0.0454 nM
  EC50 of CD69 up-regulation on CD8 T cells (% CD8+CD69+), AsPC-1 target cells, 48 h (FACS): 0.118 nM
  EC50 of CD69 up-regulation on CD8 T cells (% CD8+CD69+), BxPC-3 target cells, 48 h (FACS): 0.479 nM
  EC50 of CD69 up-regulation on CD8 T cells (% CD8+CD69+), NCI-H596 target cells, 48 h (FACS): 0.0532 nM
Human CD3
  binding result: binds
Human mesothelin [9]
  EC50: 4.59 nM
